In patent US20130230533A1 (Regeneron, published 2013):
Substitutions are numbered along the chain they refer to. Numbers in names are those of the source.

T1: human CD48 (on primary human peripheral blood mononuclear cells) (human, UniProt P09326 27-220)
T1 sequence: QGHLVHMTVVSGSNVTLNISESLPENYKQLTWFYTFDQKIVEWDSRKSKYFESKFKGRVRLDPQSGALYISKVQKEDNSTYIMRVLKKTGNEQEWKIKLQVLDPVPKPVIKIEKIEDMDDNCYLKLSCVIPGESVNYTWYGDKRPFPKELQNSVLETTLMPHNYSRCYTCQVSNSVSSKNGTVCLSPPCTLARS

T2: biotinylated dimeric human CD48 protein expressed as a fusion with mouse IgG2a Fc (human, biotinylated)
T2 construct: also called bio-hCD48-mFc; Dimeric human CD48-mFc
T2 chain: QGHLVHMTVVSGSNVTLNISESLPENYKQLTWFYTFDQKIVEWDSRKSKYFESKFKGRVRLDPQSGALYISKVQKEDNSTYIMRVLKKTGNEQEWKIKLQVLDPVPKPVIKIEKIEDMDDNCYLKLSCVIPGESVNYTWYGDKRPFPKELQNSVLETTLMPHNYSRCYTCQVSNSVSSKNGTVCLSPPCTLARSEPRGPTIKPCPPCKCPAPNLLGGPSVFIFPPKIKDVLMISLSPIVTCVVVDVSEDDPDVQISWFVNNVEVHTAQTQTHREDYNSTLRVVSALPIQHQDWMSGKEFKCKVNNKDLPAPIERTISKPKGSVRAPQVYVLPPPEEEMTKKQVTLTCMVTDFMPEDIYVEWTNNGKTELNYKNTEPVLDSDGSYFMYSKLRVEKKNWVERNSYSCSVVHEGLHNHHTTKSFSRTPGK

T3: monomeric monkey CD48 expressed with a tag consisting of 2 myc and one 6-His epitopes (monkey)
T3 construct: also called mfCD48-mmH; Monomeric monkey CD48-mmH
T3 chain: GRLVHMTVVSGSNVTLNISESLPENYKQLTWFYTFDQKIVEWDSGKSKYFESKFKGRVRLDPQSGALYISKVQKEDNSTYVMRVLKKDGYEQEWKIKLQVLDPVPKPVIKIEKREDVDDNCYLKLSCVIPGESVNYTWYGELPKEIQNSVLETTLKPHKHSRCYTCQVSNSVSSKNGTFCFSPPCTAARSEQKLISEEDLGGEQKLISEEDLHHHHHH

B1: H4H1763N (antibody, human IgG4, V domains shown)
VH: QIQLVQSGAEMKRPGTSVKVSCKASGYTFTSYGINWVRQAPGQGLEWMGWISAYNGDTNYAQKLQGRVTMTTDTSTTTAYMEVRSLRSDDTAVYYCARFLTGTKDYYYGMDVWGQGTTVTVSS
VL: DIQMTQSPSSLSASVGDRVTITCQASQDISNFLNWYQQKPGKAPDLLINDASILETGVPSRFSGSGSGTDFTLTINNLQPEDIATYYCQQYDNLPLTFGGGTKVEIK
notes: Human IgG4 Fc (H4H) form of 1763N
B2: H4H1764N (antibody, human IgG4, V domains shown)
VH: QVQLVESGGGVVQPGRSLRLSCAASGFTFSDYGMHWVRQAPGKGLEWVAVIWNDGSNKNYADSVKGRFSISSDSSKNTLYLHMNSLRAEDTAVYYCARSLYSTSPWYFDLWGRGTLVTVSS
VL: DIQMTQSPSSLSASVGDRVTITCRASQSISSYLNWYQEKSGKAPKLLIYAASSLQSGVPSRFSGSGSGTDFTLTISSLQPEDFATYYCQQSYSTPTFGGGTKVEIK
notes: Human IgG4 Fc (H4H) form of 1764N
B3: H4H1771P (antibody, human IgG4, V domains shown)
VH: QVQLVQSGTEVKKPGASVKVSCKVSGYTLIDLSIHWVRQAPGEGLEWMGGFDPEESETIYAQKFQGRVTMTEDTSTDTAYMELSSLRSEDTAVYYCVTEPIFGILIHESWGQGTLVTVSS
VL: DIVMTQTPLSSPVTLGQPASISCRSSHSPVHSNGHTYLSWLQQRPGQPPRILIYKISRRFSGVPDRFSGSGAGTDFTLKISRVETEDVGIYYCMQASQFPWTFGQGTKVEIK
notes: Human IgG4 Fc (H4H)
B4: H4H1774P (antibody, human IgG4, V domains shown)
VH: QVQLVESGGGVVQPGRSLRLSCAASGFTFSNYGMHWVRQAPGKGLEWVAVIWYDESSKYYTDSVKGRFTISRDNSQNTLYLQMTSLRAEDTAVYYCARDRWTYSHYFEYWGQGTLVTVSS
VL: DIQMTQSPSSVSASVGDRVTITCRASQGISSWVAWYQQKPGKAPKLLIYAASSLQSGVPSRFSGSGSGTDFTLTISSLQPEDFATYYCQQANSFPRTFGQGTKVEIK
notes: Human IgG4 Fc (H4H)
B5: H4H1769Pa (antibody, human IgG4, V domains shown)
VH: QVQLVQSGAEVKKPGASVKVSCKTSGYTFAGYGITWVRQAPGRGLEWMGWVSAYNGDTDYAQSLQGRVTMTTDTSTSTAYMELRSLRSDDTAMYYCARDRYSSSSGYFDYWGQGTLVTVSS
VL: B4 VL with V33L, Y36H, L46V, Q55H, D70E, S93T, R96Y, V104L
B6: H4H1713N (antibody, human IgG4, V domains shown)
VH: QVQLVQSGAEVKKPGASVKVSCKASGHTFTNYYIHWVRQAPGQGLEWMGITNPNDGNTRYAQKFQGRISMTWDTSTSTVFMELSSLKSEDTAVYYCAGLRYWFFDLWGRGTPVTVSS
VL: B4 VL with G28D, V33L, K45N, Y49F, A84G, A91T, N92D, S93N, K107N
notes: Human IgG4 Fc (H4H) form of 1713N
B7: H4H1770P (antibody, human IgG4, V domains shown)
VH: QVQLVQSGAEVKKPGAAVKVSCKASGYTFTAYGISWVRQAPGQGLEWMGWISAYDGDTNNAQKFQGRVTMTTDTSSSTAYMELRSLGSDDTAVYYCARDRYSSSSGYFDYWGQGTLVTVSS
VL: B4 VL with G28D, V33L, Y36S, L46A, R96Y, V104L
notes: Human IgG4 Fc (H4H)
B8: H4H1707N (antibody, V domains shown)
VH: EGQLLESGGGLAQPGGSLRLSCAASGITFGRYAMSWVRQAPGKGLEWVSLISGSGGSTYHADSVKGRFTISRDNSKNTLYLQMNSLRAEDTAVYYCAIYNNYNWFDPWGQGTLVTVSS
VL: EIVLTQSPGTLSLSPGERATLSCRASQSVSSNYLAWYQQKPGQAPRLLIYDASSRATDIPDRFSGSGSGTDFTLTISRLEPEDFAVYYCQQYGSSPRTFGQGTKVEIK
notes: Human IgG4 Fc (H4H) form of 1707N

Legend:
[1] = molecular target: T1, human CD48 (on primary human peripheral …); test: cell-based or functional assay
[2] = molecular target: T2, biotinylated dimeric human CD48 protein …; test: competition ELISA; blocks bio-hCD48-mFc binding to coated h2B4-mFc
Procedure: (§1) The ability of human anti-CD48 monoclonal antibodies to block human CD48 and monkey CD48 binding to the human cognate ligand, human 2B4, was measured using a competition sandwich ELISA (Table 8). Constant amounts of biotinylated dimeric human CD48 protein expressed as a fusion with mouse IgG2a Fc (“bio-hCD48-mFc” [SEQ ID NO: 387]) or monomeric monkey CD48 expressed with a tag consisting of 2 myc and one 6-His epitopes (“mfCD48-mmH” [SEQ ID NO: 386]) were separately titrated with varying amounts of antibodies. These antibody-protein complexes were incubated (1 hr, 25° C.) before being transferred to microtiter plates coated with a dimeric construct expressing the human 2B4 receptor fused to a either human IgG1 (h2B4-hFc [R&D Systems, Inc., Minneapolis, Minn., Cat. No. 1039-2B]) or mouse IgG2a Fc (h2B4-mFc [SEQ ID NO: 389). After a 1 hr at 25° C. the wells were washed and bound human CD48 was detected with streptavidin conjugated with horse-radish peroxidase (HRP), and monkey CD48 was detected with an HRP conjugated anti-myc polyclonal antibody. The ELISA was developed with a TMB solution to produce a colorimetric reaction and quenched with sulfuric acid before reading absorbance at 450 nm on a Victor X5 plate reader. Sigmoidal dose response curves were fit to the data using Prism™ software. […] (Tables 8 and 9, NB=no binding observed)

[3] = molecular target: T1, human CD48 (on primary human peripheral …); test: cell-based or functional assay; remark: listed apart in the source
[4] = molecular target: T1, human CD48 (on primary human peripheral …); test: cell-based or functional assay; remark: listed apart in the source
[5] = molecular target: T3, monomeric monkey CD48 expressed with a …; test: competition ELISA; blocks mfCD48-mmH binding to coated h2B4-mFc
Procedure: as §1

[6] = molecular target: T1, human CD48 (on primary human peripheral …); test: cell-based or functional assay; remark: listed apart in the source

| Binder | IC50 [2] [pM] | Inhibition of IFN-gamma Release IC50; Donor 9 [3] [Molar] | Inhibition of IFN-gamma Release IC50; Donor 11 [3] [Molar] | % Blockade of IFNγ release, MLR; D1 [4] [%] | % Blockade of IFNγ release, MLR; D2 [4] [%] | % Blockade of IFNγ release, MLR; D3 [4] [%] | % Blockade of IFNγ release, MLR; D5 [4] [%] | % Blockade of IFNγ release, MLR; D6 [4] [%] | % Blockade of IFNγ release, MLR; D7 [4] [%] | % Blockade of IFNγ release, MLR; D8 [4] [%] | % Blockade of IFNγ release, MLR; D9 [4] [%] | IC50 [5] [pM] | other results |
| --- | --- | --- | --- | --- | --- | --- | --- | --- | --- | --- | --- | --- | --- |
| B1 | 7.4 | 9.3e-12 | 3.4e-12 | 59 | 89 | 68 | 63 | 75 | 48 | 30 | 53 | 7.2 | IC50 of IFNγ release, MLR; D1 [1]: ~10 pM; IC50 of IFNγ release, MLR; D3 [1]: ~6.4 pM; IC50 of IFNγ release, MLR; D4 [1]: 210 pM; IC50 of IFNγ release, MLR; D5 [1]: ~27 pM; IC50 of IFNγ release, MLR; D6 [1]: 23 pM; IC50 of IFNγ release, MLR; D8 [1]: ~3700 pM; IC50 of IFNγ release, MLR; D9 [1]: ~4100 pM; IC50 of IFNγ release, MLR; D10 [1]: ~84 pM; IC50 of IFNγ release, MLR; D11 [1]: 73 pM; IC50 of IFNγ release, MLR; D12 [1]: ~56 pM; IC50 of IFNγ release, MLR; D13 [1]: 92 pM; IC50 of IFNγ release, MLR; D14 [1]: 63 pM; IC50 of IFNγ release, MLR; D15 [1]: ~0.059 pM; IC50 of IFNγ release, MLR; D16 [1]: 7.6 pM; Inhibition of IFN-gamma Release IC50; Donor 8 [3]: 8.6e-12 Molar; Inhibition of IFN-gamma Release IC50; Donor 10 [3]: 1e-12 Molar; % Blockade of IFNγ release, MLR; D4 [4]: 52% |
| B2 | 76 | 3.1e-11 | 2.3e-11 | 69 | 46 | 80 | 75 | 59 | 48 |  |  | 160 | Inhibition of IFN-gamma Release IC50; Donor 8 [3]: 5.3e-12 Molar; Inhibition of IFN-gamma Release IC50; Donor 10 [3]: 5.1e-12 Molar |
| B3 | 9.9 |  | 1.5e-11 | 78 | 79 | 88 | 47 | 50 | 36 |  | 32 | 2.2 |  |
| B4 | 25 |  |  |  |  |  |  |  |  |  |  | 16 | Inhibition of IFN-gamma Release IC50; Donor 6 [6]: 2.5e-11 Molar; Inhibition of IFN-gamma Release IC50; Donor 7 [6]: 9.5e-12 Molar |
| B5 |  | 5.7e-12 | 1.9e-11 |  | 60 | 39 | 43 | 60 | 51 | 40 |  |  |  |
| B6 | 18 |  |  |  |  |  |  |  |  |  |  | 3.4 |  |
| B7 | 20 |  |  |  |  |  |  |  |  |  |  | 22 |  |
| B8 | 22 | 5.1e-11 |  | 66 | 87 | 78 | 62 | 77 | 62 | 42 | 60 | 45 | % Blockade of IFNγ release, MLR; D4 [4]: 20% |
